Experimental data as given in patent publication US20050048071A1 (RUSH UNIVERSITY MEDICAL CENTER, published 2005).

Tests used:
[1] = molecular target: HLA-A2.1 MHC class I molecules on T2 cells (human); assay: T2 cells pulsed with peptide, anti-HLA-A2.1 flow cytometry; Brefeldin A treatment: 0 hr
Procedure: (§1) T2 cells were washed and resuspended in serum-free AIM-VTM (Gibco-Life Technologies, Rockville, Md.) at a final concentration of 1×10⁶ cells/ml and transferred into a 24-well tissue culture plate. […] After incubation, cells were washed once with PBS containing 3% FCS, and stained with mouse anti-HLA-A2.1 monoclonal antibody for 15 minutes at 4° C. After washing, the cells were incubated with goat anti-mouse IgG(F(ab′)2)-FITC for 15 minutes at 4° C. The cells were washed once, and fluorescence was measured on a FACSort™ flow cytometer (Becton Dickson, San Jose, Calif.). The fluorescence index was calculated as follows: (mean channel fluorescence of sample−mean channel fluorescence of unstained control cells)/mean channel fluorescence of unstained control cells.

[2] = molecular target: HLA-A2.1 MHC class I molecules on T2 cells (human); assay: T2 cells pulsed with peptide, anti-HLA-A2.1 flow cytometry; Brefeldin A treatment: None
Procedure: as §1

[3] = molecular target: HLA-A2.1 MHC class I molecules on T2 cells (human); assay: T2 cells pulsed with peptide, anti-HLA-A2.1 flow cytometry; Brefeldin A treatment: 4 hr
Procedure: as §1

[4] = molecular target: HLA-A2.1 MHC class I molecules on T2 cells (human); assay: T2 cells pulsed with peptide, anti-HLA-A2.1 flow cytometry; Brefeldin A treatment: 2 hr
Procedure: as §1

[5] = molecular target: HLA-A2.1 MHC class I molecules on T2 cells (human); assay: T2 cells pulsed with peptide, anti-HLA-A2.1 flow cytometry; Brefeldin A treatment: 6 hr
Procedure: as §1

[6] = molecular target: HLA-A2.1 MHC class I molecules on T2 cells (human); assay: T2 cells pulsed with peptide, anti-HLA-A2.1 flow cytometry; Brefeldin A treatment: Overnight
Procedure: as §1

| Binder | binding score (HLA-A2.1 fluorescence on T2 cells) [1] | binding score (HLA-A2.1 fluorescence on T2 cells) [2] | binding score (HLA-A2.1 fluorescence on T2 cells) [3] | binding score (HLA-A2.1 fluorescence on T2 cells) [4] | binding score (HLA-A2.1 fluorescence on T2 cells) [5] | binding score (HLA-A2.1 fluorescence on T2 cells) [6] |
| --- | --- | --- | --- | --- | --- | --- |
| LLFLTPMEV (Synthetic nonamer) [CD19 peptide LLFLTPMEV (SEQ ID NO: 3)] | 770 | 556 | 880 | 924 | 573 | 453 |
| AISGMILSI (Synthetic nonamer) [CD20 peptide AISGMILSI (SEQ ID NO: 7)] | 220 | 162 | 165 | 256 | 144 | 232 |
| FIRAHTPYI (Synthetic nonamer) [CD20 peptide FIRAHTPYI (SEQ ID NO: 8)] | 232 | 167 | 192 | 215 | 154 | 250 |
| SLFLGILSV (Synthetic nonamer) [CD20 peptide SLFLGILSV (SEQ ID NO: 6)] | 672 | 637 | 762 | 703 | 770 | 410 |
| TLAYLIFCL (Synthetic nonamer) [CD19 peptide TLAYLIFCL (SEQ ID NO: 2)] | 530 | 363 | 513 | 608 | 387 | 312 |
| KLMSPKLYV (Synthetic nonamer) [CD19 peptide KLMSPKLYV (SEQ ID NO: 4)] | 683 |  | 796 |  | 642 | 540 |
| LLFFLLFLV [CD19 peptide LLFFLLFLV (SEQ ID NO: 5)] | 200 | 164 | 163 | 202 | 143 | 200 |
| LKMESLNFI (Synthetic nonamer) [CD20 peptide LKMESLNFI (SEQ ID NO: 10)] | 245 | 215 | 227 | 291 | 190 | 225 |
| SLNFIRAHT (Synthetic nonamer) [CD20 peptide SLNFIRAHT (SEQ ID NO: 9)] | 212 | 172 | 180 | 200 | 128 | 195 |
| RLLFFLLFL (Synthetic nonamer) [CD19 peptide RLLFFLLFL (SEQ ID NO: 1)] | 167 |  | 174 | 202 | 152 | 248 |
| SHFLKMESL (Synthetic nonamer) [CD20 peptide SHFLKMESL (SEQ ID NO: 11)] | 216 | 172 | 199 | 218 | 127 | 277 |
